Patent publication CN117466995A (YIDAO BIOTECHNOLOGY SUZHOU CO LTD, dated 2024)
“And” between values parts separate entries of the source, which are not always exact repeats. Equal entries are not always repeated.

T1: HPV45型衣壳蛋白L1病毒样颗粒(VLP)抗原 (HPV 45型) (UniProt P36741)
T1 sequence: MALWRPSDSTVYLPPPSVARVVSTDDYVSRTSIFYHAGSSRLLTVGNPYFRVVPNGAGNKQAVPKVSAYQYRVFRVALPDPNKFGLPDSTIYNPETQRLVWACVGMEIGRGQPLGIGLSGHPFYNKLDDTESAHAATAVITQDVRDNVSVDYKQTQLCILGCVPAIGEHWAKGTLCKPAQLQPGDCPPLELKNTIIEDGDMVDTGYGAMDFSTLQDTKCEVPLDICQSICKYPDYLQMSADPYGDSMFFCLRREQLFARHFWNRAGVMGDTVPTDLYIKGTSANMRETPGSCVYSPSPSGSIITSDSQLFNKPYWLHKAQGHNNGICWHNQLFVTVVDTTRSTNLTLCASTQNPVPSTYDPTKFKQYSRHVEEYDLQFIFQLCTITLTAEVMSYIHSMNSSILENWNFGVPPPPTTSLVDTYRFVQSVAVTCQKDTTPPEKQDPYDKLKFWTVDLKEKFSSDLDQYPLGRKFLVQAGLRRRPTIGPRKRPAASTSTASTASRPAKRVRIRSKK


How the values were obtained:
[1] = target: T1, HPV45型衣壳蛋白L1病毒样颗粒(VLP)抗原 (HPV 45型); experiment: sandwich ELISA, rabbit pAb R163 capture 1:500, mAb 1:20000; column 12, antigen amount not stated (only 11 dilutions described)
[2] = target: T1, HPV45型衣壳蛋白L1病毒样颗粒(VLP)抗原 (HPV 45型); experiment: sandwich ELISA, rabbit pAb R163 capture 1:500, mAb 1:20000; antigen 13.3 ug/ml, 2.5-fold series, step 10
[3] = target: T1, HPV45型衣壳蛋白L1病毒样颗粒(VLP)抗原 (HPV 45型); experiment: sandwich ELISA, rabbit pAb R163 capture 1:500, mAb 1:20000; antigen 13.3 ug/ml, 2.5-fold series, step 3
[4] = target: T1, HPV45型衣壳蛋白L1病毒样颗粒(VLP)抗原 (HPV 45型); experiment: sandwich ELISA, rabbit pAb R163 capture 1:500, mAb 1:20000; antigen 13.3 ug/ml, 2.5-fold series, step 9

| Binder | OD [1] | OD [2] | OD [3] | OD [4] [OD] |
| --- | --- | --- | --- | --- |
| 杂交瘤细胞株7A5(CGMCC NO:45706)分泌的鼠源单克隆抗体 (antibody, V domains shown, also called 鼠单抗7A5; 抗体7A5) VH: QPGAELVKPGASVKLSCKASGYTFTSYWMHWVKQRPGQGLEWIGEINPSNGHTNYNEKFKSKATLTVDKSSSTAYMQLSSLTSEDSAVYYCAPCYGSSYDYYAMDYWGQGTSVTVSS VL: DIVLTQSPASLAVSLGQRATISCRASQSVSTSSYSYMHWYQQKPGQPPKLLIKYASNLESGVPARFSGSGSGTDFTLNIHPVEEEDTATYYCQHSWEIPYTFGGGTKLEIK | 0.067 OD and 0.064 OD | 0.068 OD and 0.072 OD | 2.9 OD and 2.78 OD | 0.106 |
| 杂交瘤细胞株11G1(CGMCC NO:45707)分泌的鼠源单克隆抗体 (antibody, V domains shown, also called 鼠单抗11G1; 抗体11G1) VH: QVQLQQPGAELVKPGASVKLSCKASGYTFTSYWMHWVKRRPGQGLEWIGEINPSNGLTNYNEKFKSKGTLTVDKSSSAAFMHLSSLTSEDSAVYYCARFHGSDLYAMDYWGQGTSVTVSS VL: DIVLTQSPASLAVSLGQRATISCRASQSVSTSSYSYMHWYQQKPGQPPKLLIKYASNLESGVPARFSGSGSGTDFTLNIHPVEEEDTATYYCQHSWEIPYTFGGGTKLEIK | 0.045 OD and 0.05 OD | 0.062 OD and 0.051 OD | 2.67 OD and 2.65 OD |  |
